Results: patent US20190367626A1
Changes are numbered by the printed parent chain.

B1: HC0LC0 (antibody, human IgG1, kappa, V domains shown)
VH: QVQLQQSGPELVKPGASVKISCKASGYIFTNNDMNWVKQRPGQGLEWIGGIDPGDGRTKYNEKFKGKATLTADKFSNTVYMQLSSLTSENSAVYFCGRGGYEFGIDYWGQGTSVTVSS
VL: DIVMTQSPSSLSVSAGEKVTMSCKSSQSLLNSGNQKNSLAWYQQKPGRPPTLLISGASTRESGVPDRFTGSGSGTDFTLTISSVQAEDLAVYYCQNDHSFPLTFGAGTKLELKR
B2: HC1LC3 (antibody, human IgG1, kappa, V domains shown)
VH: QVQLVQSGAEVKKPGATVKISCKVSGYIFTNNDMNWVQQAPGKGLEWMGGIDPGDGRTKYNEKFKGRVTITADESTSTAYMELSSLRSEDTAVYYCGRGGYEFGIDYWGQGTLVTVSS
VL: DIVMTQSPDSLAVSLGERATINCKSSQSLLNSGNQKNSLAWYQQRPGHPPKLLLYGASTRESGVPDRFSGSGSGTDFTLTISSLQAEDVAVYYCQNDHSFPLTFGGGTKVEIKR
B3: HC3LC3 (antibody, human IgG1, kappa, V domains shown)
VH: QVQLVQSGAEVKKPGSSVKVSCKSSGYIFTNNDMNWVRQAPGQGLDWMGGIDPGDGRTKYNEKFKGRVTISADIFSNTAYMELNSLTSEDTAVYFCGRGGYEFGIDYWGQGTTVTVSS
VL: B2 VL
B4: HC4LC3 (antibody, human IgG1, kappa, V domains shown)
VH: B2 VH with Q6E, T17S, I20V, Q38R, K43E, I70M, A72E, E74T, S77D, L113T
VL: B2 VL
B5: HC2LC3 (antibody, human IgG1, kappa, V domains shown)
VH: QVQLVQSGAEVKKPGASVKVSCKASGYIFTNNDMNWVRQAPGQGLEWMGGIDPGDGRTKYNEKFKGRVTMTRDTSTNTVYMELSSLTSEDTAVYFCGRGGYEFGIDYWGQGTTVTVSS
VL: B2 VL

These binders were tested against TRAILshort (UniProt P50591) (assay: SPR).
Chain of TRAILshort (P50591 other isoform, or with tags, fused parts or gaps): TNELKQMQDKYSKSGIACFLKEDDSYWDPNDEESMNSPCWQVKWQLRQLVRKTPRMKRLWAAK

Binder | Kd [pM]
B1 | 3
B2 | 10
B3 | 4.5
B4 | 31
B5 | 3.8
